Consider three substances from article PMC3182529.

The target of the experiment is 14-3-3ζ (UniProt P63104). The experiment can be described thus: fluorescence polarisation.
Chain of 14-3-3ζ (P63104 whole entry): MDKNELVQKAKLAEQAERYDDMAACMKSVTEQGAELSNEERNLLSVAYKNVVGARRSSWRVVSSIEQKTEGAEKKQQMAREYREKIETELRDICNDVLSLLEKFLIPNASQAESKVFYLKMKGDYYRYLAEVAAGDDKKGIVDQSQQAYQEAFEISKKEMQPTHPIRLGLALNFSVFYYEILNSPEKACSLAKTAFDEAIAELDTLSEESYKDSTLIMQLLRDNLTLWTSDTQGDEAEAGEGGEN

By Kd is commonly meant the constant that tells how readily two partners part at equilibrium. A low value points to tighter binding. With “H3S28ph (25–38) (from UniProt P68431 26-39) (peptide)”, the Kd was determined as 18.7 µM. “H3K27acS28ph (25–38) (from UniProt P68431 26-39) (peptide)” showed a Kd of 34.9 µM. Take “H3S28phP30A (25–38) (from UniProt P68431 26-39) (peptide)”: the Kd amounted to 162 µM.
